Results on one molecule are retold here after patent US7265263B1, “Potato transcription factors, methods of use thereof, and a method for enhancing tuber development” (Iowa State University Research Foundation, Inc., priority 2002, dated 2007).

Assay [1] concerns potato ga20ox1 promoter (P1, P2, P3) and first intron. As to the kind of experiment: Gel retardation assay with ga20ox1 promoter regions and first intron. Type of assay: binding. The text has this:
The first intron with partial flanking exon sequence (450 bp) of potato ga20ox1 and its promoter (981 bp, provided by Dr. Salomé Prat, CSIC Cantoblanco Campus, Univ. of Madrid, Spain) were used for gel mobility shift assays. Polymerase chain reaction (PCR) was used to amplify three regions of the promoter: -981 to 636 (P1), -660 to 307 (P2), and -331 to 0 (P3). About a 25-bp overlap was maintained between P1 and P2 or P2 and P3 in the chance that the protein-binding site would span the overlapped region. The first intron of this gene was amplified from potato genomic DNA by using PCR and the oligos 5′-[…]-3′ (SEQ ID NO:21) and 5′-[…]-3′ (SEQ ID NO:22) as primers. These primers were designed based on the site of the first intron of the tobacco GA20 oxidase gene Ntc12. The four fragments were purified on a 1.4% agarose gel and labeled with α^32P-dATP using Klenow fragment. […]
In the competition assays, unlabeled double-stranded DNA fragments (10×, 25×, 50×, 100×) were incubated with the recombinant protein before the addition of the radioactive probe. The dissociation rates were determined by adding 500-fold more cold DNA fragments to the DNA-binding reactions that were being incubated on ice, and loaded onto the running gel every 10 minutes. […]

The next assay relates to ga20ox1 promoter. Put plainly: Transcription assay, GUS reporter driven by ga20ox1 promoter in tobacco protoplasts. In kind it is cell-based, potato. The source says:
The cauliflower mosaic virus (CaMV) 35S promoter in pBI221 (Clontech, Palo Alto, Calif.) was replaced by an enhancer fragment (-832 to -50) of the 35S promoter plus 980 bp of the ga20ox1 promoter to generate the pGAOP::β-glucuronidase (GUS) reporter construct. With this construct, the reporter GUS transcription level is augmented but its transcription may still be affected by the ga20ox1 promoter. A CaMV 35S promoter-driven luciferase (LUC) construct 35S-LUC (obtained from Dr. Takahashi, Dept. of Biological Sciences, Graduate School of Science, Univ. of Tokyo, Japan) was used as an internal control. Effector constructs were also generated by using pBI221 vector as a backbone, with the GUS gene replaced by the full-length cDNAs of either StBEL-05 or POTH1, downstream of the CaMV 35S promoter. Truncated cDNAs that encode the N-terminal protein-binding domains of StBEL-05 or POTH1 were used to generate the dominant negative constructs, StBEL5ΔC295 and POTH1ΔC122, respectively. The reporter construct with the mutated promoter was generated by site-directed PCR mutagenesis with oligos 5′-CTATTTGACTTC*ACACGGTTATTT-3′ (SEQ ID NO:23) and 5′-AAATAACCGTGTG*AAGTCAAATAG-3′ (SEQ ID NO:24).
Fully expanded leaves from three- to four-week-old tobacco plants were excised and placed in K3 basal media (Kao et al., “Nutritional Requirements for Growth of Vicia hajastana Cells and Protoplasts at a Very Low Density in Liquid Media,” Planta 126:105-110 (1975), which is hereby incorporated by reference in its entirety) supplemented with 0.4 M sucrose, 0.25% (w-v) cellulases (Karlan Research Products, Santa Rosa, CA), and 0.05% (w-v) macerases (Calbiochem, La Jolla, Calif.) and incubated for overnight at 28° C. After incubation, the liberated protoplasts were filtered through sterile cheesecloth into a Babcock bottle, and centrifuged for 10 minutes at 1000 rpm. Protoplasts were collected from the bottleneck area and washed once in K3 media with 0.4 M sucrose and resuspended in K3 media containing 0.4 M glucose to a final concentration of 4×10^6 protoplasts per milliliter. […]
Luciferase assays were performed by injecting 100-μL luciferase substrate (Promega, Madison, Wis.) into 20 μL of extract and measuring the emitted photons for 15 seconds in a TD-20 luminometer (Turner Designs, Sunnyvale, Calif.). […] A fluorescence multiwell plate reader, Fluoroskan II (MTX labs, Vienna, Va.), was used to measure GUS activity at 365 nm (excitation) and 455 nm (emission). Each sample was measured three times for both LUC and GUS activity. Relative GUS-LUC activity was calculated by dividing the ratio of GUS activity to LUC activity from different effectors with the ratio from reporter plasmid alone. Relative activities calculated from three transfection replications were presented as a mean±SE.

The test system of a further assay is POTH1. Put plainly: In vitro binding assay (immunoprecipitation) with POTH1. Also on record: species or system Solanum tuberosum. The settings on record: in vitro transcription/translation, anti-GAD. The protocol:
In vitro binding experiments were performed as described by Ni et al., “PIF3, a Phytochrome-Interacting Factor Necessary for Normal Photoinduced Signal Transduction, is a Novel Basic Helix-Loop-Helix Protein,” Cell 95:657-667 (1998), which is hereby incorporated by reference in its entirety. The full-length sequence for POTH1 was cloned into a pET17b/GAD fusion cassette and transcribed under the control of the T7 promoter. […] Each 50 μl TnT reaction contained 2.0 μg of template plasmid DNA and 20 μmol (20 μCi) of labeled ^35S-methionine. The POTH1:GAD/BEL complex was immunoprecipitated with anti-GAD antibodies (Santa Cruz Biotechnology, Calif.). The proteins from the pellet (one-half the fraction) and for the prey (one-fourth of the reaction volume) were resolved on a 10% SDS-PAGE gel and visualized by autoradiography.

Chain of POTH1 (as listed by the source): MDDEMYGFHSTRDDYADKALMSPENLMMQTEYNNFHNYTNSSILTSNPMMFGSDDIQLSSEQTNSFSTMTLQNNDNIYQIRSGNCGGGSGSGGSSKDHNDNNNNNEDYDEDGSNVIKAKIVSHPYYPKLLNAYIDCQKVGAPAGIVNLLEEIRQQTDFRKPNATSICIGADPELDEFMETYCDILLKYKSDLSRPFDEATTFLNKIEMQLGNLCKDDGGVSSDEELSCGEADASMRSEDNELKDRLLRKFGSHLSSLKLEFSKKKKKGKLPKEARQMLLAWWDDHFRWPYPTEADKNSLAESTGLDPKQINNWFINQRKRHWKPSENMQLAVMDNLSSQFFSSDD

B1: StBEL-05 protein from pGEM11Z (in vitro transcription/translation) (other)
chain: MYYQGTSDNTNIQADHQQRHNHGNSNNNNIQTLYLMNPNNYMQGYTTSDTQQQQQLLFLNSSPAASNALCHANIQHAPLQQQHFVGVPLPAVSLHDQINHHGLLQRMWNNQDQSQQVIVPSSTGVSATSCGGITTDLASQLAFQRPIPTPQHRQQQQQQGGLSLSLSPQLQQQISFNNNISSSSPRTNNVTIRGTLDGSSSNMVLGSKYLKAAQELLDEVVNIVGKSIKGDDQKKDNSMNKESMPLASDVNTNSSGGGESSSRQKNEVAVELTTAQRQELQMKKAKLLAMLEEVEQRYRQYHHQMQIIVLSFEQVAGIGSAKSYTQLALHAISKQFRCLKDAIAEQVKATSKSLGEEEGLGGKIEGSRLKFVDHHLRQQRALQQIGMMQPNAWRPQRGLPERAVSVLRAWLFEHFLHPYPKDSDKIMLAKQTGLTRSQVSNWFINARVRLWKPMVEEMYLEEVKNQEQNSTNTSGDNKNKETNISAPNEEKHPIITSSLLQDGITTTQAEISTSTISTSPTAGASLHHAHNFSFLGSFNMDNTTTTVDHIENNAKKQRNDMHKFSPSSILSSVDMEAKARESSNKGFTNPLMAAYAMGDFGRFDPHDQQMTANFHGNNGVSLTLGLPPSENLAMPVSQQNYLSNDLGSRSEMGSHYNRMGYENIDFQSGNKRFPTQLLPDFVTGNLGT
notes: 35S-methionine labelled prey; also called p11Z-5
As to B1, in assay [1], the “binding to ga20ox1 regulatory regions (mobility shift)” value is “retarded the mobility of all three promoter sequences and the first intron”. Also, the “relative GUS-LUC activity of the pGAOP::GUS reporter construct” value with ga20ox1 promoter (co-transfected effector, reporter alone = 100%) is on record as “decreased by more than half”. The “repression of promoter activity, reporter with point mutation in the binding site” value with ga20ox1 promoter (mutated ga20ox1 promoter) is reported as “no detectable repression”. The “pull-down by POTH1 in immunoprecipitation” value with POTH1 is listed as “pulled down”.
